Laboratory results taken from paper PMC4428384, “Differences in conformational dynamics within the Hsp90 chaperone family reveal mechanistic insights” (Frontiers in Molecular Biosciences, 2014).

What was measured:
[1] = molecular target: the molecule itself; assay: FRET or BRET; subunit exchange as in a1, in the presence of ADP
[2] = molecular target: the molecule itself; assay: FRET or BRET; subunit exchange, dimer to monomers: ATTO 488 and ATTO 550 labeled proteins combined (400 nM each), rapidly mixed 1:1 with unlabeled protein (20 μM) in a stopped-flow device, 480 nm excitation, 590 nm cut-off filter; no nucleotide (apo)
[3] = molecular target: the molecule itself; assay: FRET or BRET; subunit exchange as in a1, in the presence of ATP

B1: hHsp90β-E20C,C366A,C412T,C521A,C564T,C589A,C590A, labeled with ATTO 488 or ATTO 550 (natural protein)
chain: not shown
modifications: ATTO 488 maleimide or ATTO 550 maleimide on the single cysteine (E20C)
notes: human Hsp90β; single cysteine variant with the natural cysteines replaced; Homodimeric protein; the rows are protomer with protomer
B1 was tested. Which subunit exchange rate [1] did it give?
The subunit exchange rate was 0.016 s⁻¹.

And the subunit exchange rate [2]?
The subunit exchange rate was 0.016 s⁻¹.

What about the subunit exchange rate [3] of the same protein?
Its subunit exchange rate is 0.01 s⁻¹.
